Legend:
[1] = molecular target: T1, rhesus-human chimeric CD11a (human (I-domain mutated to rhesus), UniProt P20701 26-1170); experiment: cell-based or functional assay
T1 sequence (looked up): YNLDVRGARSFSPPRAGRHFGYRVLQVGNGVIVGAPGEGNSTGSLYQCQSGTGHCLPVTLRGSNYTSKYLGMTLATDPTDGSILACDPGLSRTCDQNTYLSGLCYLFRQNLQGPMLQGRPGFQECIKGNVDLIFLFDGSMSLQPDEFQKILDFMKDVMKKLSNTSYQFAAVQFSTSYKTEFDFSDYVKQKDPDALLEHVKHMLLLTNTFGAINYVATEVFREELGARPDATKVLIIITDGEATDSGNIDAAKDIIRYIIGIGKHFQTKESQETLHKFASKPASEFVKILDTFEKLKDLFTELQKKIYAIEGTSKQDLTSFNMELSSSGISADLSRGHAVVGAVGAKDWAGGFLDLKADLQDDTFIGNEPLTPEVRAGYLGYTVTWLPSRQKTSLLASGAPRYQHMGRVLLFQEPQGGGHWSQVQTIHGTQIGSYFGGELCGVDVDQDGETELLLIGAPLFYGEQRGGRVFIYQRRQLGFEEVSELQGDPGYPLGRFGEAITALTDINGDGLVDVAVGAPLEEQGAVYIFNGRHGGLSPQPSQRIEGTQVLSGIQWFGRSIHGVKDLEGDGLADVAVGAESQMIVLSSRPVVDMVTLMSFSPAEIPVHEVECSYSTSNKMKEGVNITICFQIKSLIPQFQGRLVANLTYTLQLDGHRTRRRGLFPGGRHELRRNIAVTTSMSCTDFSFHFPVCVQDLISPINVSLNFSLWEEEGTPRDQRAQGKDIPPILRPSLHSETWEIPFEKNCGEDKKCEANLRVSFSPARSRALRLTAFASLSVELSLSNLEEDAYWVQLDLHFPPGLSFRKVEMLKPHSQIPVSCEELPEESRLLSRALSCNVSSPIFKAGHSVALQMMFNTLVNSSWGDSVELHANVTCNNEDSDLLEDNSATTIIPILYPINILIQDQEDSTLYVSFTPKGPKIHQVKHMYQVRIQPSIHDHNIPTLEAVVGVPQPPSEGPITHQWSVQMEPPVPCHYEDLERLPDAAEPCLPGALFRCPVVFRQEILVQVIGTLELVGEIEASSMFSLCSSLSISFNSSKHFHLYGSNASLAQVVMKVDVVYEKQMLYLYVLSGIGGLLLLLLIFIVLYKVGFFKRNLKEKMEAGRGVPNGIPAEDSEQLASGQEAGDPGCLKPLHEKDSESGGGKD

rhesus CD11a [2] = molecular target: T2, rhesus CD11a (rhesus, UniProt H9Z8N3 26-1169); experiment: cell-based or functional assay
T2 sequence: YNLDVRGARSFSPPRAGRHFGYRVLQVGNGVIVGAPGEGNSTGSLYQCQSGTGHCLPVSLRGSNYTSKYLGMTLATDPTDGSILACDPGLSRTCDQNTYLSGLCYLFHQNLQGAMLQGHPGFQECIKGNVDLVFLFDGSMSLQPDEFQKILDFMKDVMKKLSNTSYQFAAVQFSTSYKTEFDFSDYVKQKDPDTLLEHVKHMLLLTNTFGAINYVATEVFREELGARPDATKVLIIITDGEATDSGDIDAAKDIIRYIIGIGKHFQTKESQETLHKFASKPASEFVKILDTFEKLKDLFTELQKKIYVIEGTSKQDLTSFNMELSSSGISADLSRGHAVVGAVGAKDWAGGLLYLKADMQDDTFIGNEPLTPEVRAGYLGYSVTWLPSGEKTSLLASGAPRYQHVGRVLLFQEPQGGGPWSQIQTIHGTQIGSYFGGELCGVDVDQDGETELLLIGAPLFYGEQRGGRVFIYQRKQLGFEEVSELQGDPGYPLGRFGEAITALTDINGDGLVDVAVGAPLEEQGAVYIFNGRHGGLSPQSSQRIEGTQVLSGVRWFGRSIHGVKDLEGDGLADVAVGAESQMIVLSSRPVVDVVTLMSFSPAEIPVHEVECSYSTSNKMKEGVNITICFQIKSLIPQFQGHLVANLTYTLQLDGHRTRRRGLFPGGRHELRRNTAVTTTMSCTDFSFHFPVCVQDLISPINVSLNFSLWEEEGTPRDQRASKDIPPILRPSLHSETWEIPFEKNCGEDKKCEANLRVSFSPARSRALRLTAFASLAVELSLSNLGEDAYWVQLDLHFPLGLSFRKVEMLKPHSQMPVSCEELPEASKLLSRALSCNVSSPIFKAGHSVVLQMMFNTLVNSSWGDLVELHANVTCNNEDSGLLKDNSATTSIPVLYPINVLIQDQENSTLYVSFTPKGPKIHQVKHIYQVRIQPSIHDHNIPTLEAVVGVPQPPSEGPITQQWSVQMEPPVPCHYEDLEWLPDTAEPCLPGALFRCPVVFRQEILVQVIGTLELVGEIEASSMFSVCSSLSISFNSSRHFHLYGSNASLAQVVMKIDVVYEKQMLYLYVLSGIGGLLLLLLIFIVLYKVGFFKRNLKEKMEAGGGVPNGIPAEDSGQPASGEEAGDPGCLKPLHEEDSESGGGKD

rhesus CD11a [3] = molecular target: T2, rhesus CD11a; experiment: saturation binding, Kd(app) compared
Procedure: Antibody affinities were determined by saturation binding using either peripheral blood mononuclear cells (murine MHM24 and HuIgG1) or rhesus leukocytes (MHM23, RhIgG1). In each assay, a radiolabeled antibody was serially diluted in HBSS-0.2% gelatin in quadruplicate. Nonspecific binding was determined by the addition of 500 nM final concentration of homologous unlabeled antibody in duplicate through the serial dilution. Human lymphocytes or rhesus leukocytes were added to the plates in a volume of 170 μl per well. Plates were incubated for 2 hr at room temperature on an orbital plate shaker. After incubation, cells were harvested using a SKATRON™ cell harvester (Lier, Norway) and washed 10 times with PBS containing 0.25% gelatin and 0.1% sodium azide. Samples were then counted for 1 min in an LBK Wallac GammaMaster gamma counter (Gaithersburg, Md.). Data was transformed from counts per minute to nanomolarity and four-parameter curve-fitting of saturation plots (bound versus total) was then performed to determine Kd (app) values.

[4] = molecular target: T1, rhesus-human chimeric CD11a; experiment: cell-based or functional assay; remark: listed apart in the source
rhesus CD11a [5] = molecular target: T2, rhesus CD11a; experiment: cell-based or functional assay; remark: listed apart in the source
rhesus CD11a [6] = molecular target: T2, rhesus CD11a; experiment: binding to rhesus peripheral blood lymphocytes; end assigned by the printed EC50s
rhesus CD11a [7] = molecular target: T2, rhesus CD11a; experiment: cell-based or functional assay; remark: listed apart in the source
rhesus CD11a [8] = molecular target: T2, rhesus CD11a; experiment: rhesus EC50 of the variant against human EC50 of HuIgG1; end assigned by the printed EC50s

fold down from MHM23, Rh/HuCD11a:HuK adhesion [1]: 4 fold | fold less efficacious than MHM23, RhLy:HuICAM adhesion (rhesus CD11a [2]): 4 fold | fold less efficacious than MHM23, RhLy:HuK adhesion (rhesus CD11a [2]): 74 fold | fold down from the Kd of HuIgG1 for human CD11a (rhesus CD11a [3]): ~26 fold | IC50 Value (nM), Rh/HuCD11a:HuK cell adhesion [4]: 4.9 nM | IC50 Value (nM), RhLy:HuICAM cell adhesion (rhesus CD11a [5]): 5.3 nM | IC50 Value (nM), RhLy:HuK cell adhesion (rhesus CD11a [5]): 119 nM | fold improvement over the EC50 of HuIgG1 for rhesus CD11a (rhesus CD11a [6]): 240 to 415 fold | IC50 Value (nM), rhesus mixed lymphocyte response (rhesus CD11a [7]): 23.4 nM | fold weaker than the EC50 of HuIgG1 for human CD11a (rhesus CD11a [8]): 3 to 5 fold
B1: rhesus-binding MHM24 RhIgG1 (antibody, V domains shown)
VH: EVQLVESGGGLVQPGGSLRLSCAASGYSFTGHWMNWVRQAPGKGLEWVGMIAPASSSTRYNQKFKDRFTISVDKSKNTLYLQMNSLRAEDTAVYYCARGIYFYGTTYFDYWGQGTLVTVSS
VL: DIQMTQSPSSLSASVGDRVTITCRASKTISKYLAWYQQKPGKAPKLLIYSGSTLQSGVPSRFSGSGSGTDFTLTISSLQPEDFATYYCQQHNEYPLTFGQGTKVEIKR
notes: HuIgG1 variant, human IgG1; also called H2C12; rhesusized antibody
